Measured values from patent US8361965B2, “Recombinant chimeric protein of neutrophil inhibitory factor and hirugen, and pharmaceutical composition thereof” (Lunan Pharmaceutical Group Corporation, priority 2008, dated 2013).
Entries after “also recorded” stand apart in the source; their conditions may differ. Like-named read-outs stand apart in the source and are kept apart here.

Assays:
[1] = test system: platelet aggregation induced by human thrombin; experiment: antiplatelet aggregation assay (rabbits dosed i.v., thrombin-induced aggregation of PRP); type: in vivo, Japanese Giant Ear White Rabbits; conditions: for aggregation ratio, difference: before vs 15 min after
Procedure: Platelet aggregation rate was determined by puncture of the central artery of the ear before administration, and then rabbits were randomly divided into 5 groups (4 in each group) based on the platelet aggregation rate and body weight: (1) negative control group (5.12 mg mannitol/kg), (2) high dose TNHH group (4.0 mg/kg), (3) middle dose TNHH group (2.0 mg/kg), (4) low dose TNHH group (1.0 mg/kg), and (5) positive control group (0.1 mg recombinant hirudin/kg). The rabbits in each group were administered at the dose respectively via intravenous injection from the marginal ear vein. Blood samples were collected at the time of 15 min after administration (timed by stopwatch) by puncture of the central artery of the ear to determine the platelet aggregation rate. The method of platelet aggregation rate determination was described as follows: the blood samples were collected by puncture of the central artery of the ear using silicified syringe. 3.8% anticoagulant sodium citrate solution (blood: anticoagulant=9:1) was used. The sample was centrifuged at 200×g for 8 min, and the supernatant obtained was platelet-rich plasma (PRP); then the remaining part was centrifuged again at 2200×g for 10 min, and the supernatant obtained was platelet-poor plasma (PPP). The platelet in PRP was counted as approximate 4.0×10^5/mm^3. According to Born's turbidimetry, a turbidimetric tube with 200 μl PRP and a small magnetic bar was placed in a platelet aggregation instrument and incubated at 37 for 1 min. After calibrating with PPP, the platelet was induced to aggregate by adding inductive human thrombin (0.76 IU/ml) under stirring. The effect of medicaments on the aggregation of platelet was analyzed using the aggregation curve and the maximum aggregation rate obtained from the instrument. The maximum aggregation rate was calculated according to the formula below: […]

Human fibrin = biological target: T1, Human fibrin (Homo sapiens, UniProt P02671+P02675+P02679); experiment: in vitro binding of TNHH to fibrin (SEC-HPLC); conditions: 37° C. 1 h
T1 construct: Human fibrin (1 g/ampoule, F5386), Sigma company; purchased Sigma F5386
T1 sequence (P02671 36-629 limits assumed): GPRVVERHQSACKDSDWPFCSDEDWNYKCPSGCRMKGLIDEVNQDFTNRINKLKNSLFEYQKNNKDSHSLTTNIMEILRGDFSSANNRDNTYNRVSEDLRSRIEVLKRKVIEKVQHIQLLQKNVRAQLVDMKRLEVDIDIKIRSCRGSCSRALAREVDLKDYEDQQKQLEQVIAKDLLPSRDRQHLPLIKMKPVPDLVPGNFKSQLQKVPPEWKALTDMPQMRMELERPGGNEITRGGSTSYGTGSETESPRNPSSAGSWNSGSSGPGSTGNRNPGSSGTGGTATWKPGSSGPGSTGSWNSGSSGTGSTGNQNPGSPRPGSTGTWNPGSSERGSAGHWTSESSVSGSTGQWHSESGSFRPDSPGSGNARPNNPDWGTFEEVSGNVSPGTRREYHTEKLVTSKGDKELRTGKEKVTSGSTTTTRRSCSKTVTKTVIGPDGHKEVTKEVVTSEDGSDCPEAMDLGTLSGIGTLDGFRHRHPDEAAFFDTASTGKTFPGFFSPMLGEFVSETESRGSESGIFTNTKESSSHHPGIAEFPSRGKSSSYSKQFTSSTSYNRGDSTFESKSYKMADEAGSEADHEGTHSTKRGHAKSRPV
T1 sequence (P02675 45-491 limits assumed): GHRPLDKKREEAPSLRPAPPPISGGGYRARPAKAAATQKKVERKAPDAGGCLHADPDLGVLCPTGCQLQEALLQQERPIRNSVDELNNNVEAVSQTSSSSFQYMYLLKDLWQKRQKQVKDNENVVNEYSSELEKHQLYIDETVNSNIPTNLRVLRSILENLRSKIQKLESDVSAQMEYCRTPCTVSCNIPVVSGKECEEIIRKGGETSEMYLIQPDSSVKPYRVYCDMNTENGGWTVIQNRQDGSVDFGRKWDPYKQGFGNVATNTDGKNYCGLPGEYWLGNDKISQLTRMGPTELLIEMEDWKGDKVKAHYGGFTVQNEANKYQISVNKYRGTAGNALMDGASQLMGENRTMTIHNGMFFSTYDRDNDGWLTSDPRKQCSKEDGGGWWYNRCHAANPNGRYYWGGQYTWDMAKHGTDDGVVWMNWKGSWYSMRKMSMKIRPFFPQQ
T1 sequence (P02679 27-437 isoform P02679-2 limits assumed): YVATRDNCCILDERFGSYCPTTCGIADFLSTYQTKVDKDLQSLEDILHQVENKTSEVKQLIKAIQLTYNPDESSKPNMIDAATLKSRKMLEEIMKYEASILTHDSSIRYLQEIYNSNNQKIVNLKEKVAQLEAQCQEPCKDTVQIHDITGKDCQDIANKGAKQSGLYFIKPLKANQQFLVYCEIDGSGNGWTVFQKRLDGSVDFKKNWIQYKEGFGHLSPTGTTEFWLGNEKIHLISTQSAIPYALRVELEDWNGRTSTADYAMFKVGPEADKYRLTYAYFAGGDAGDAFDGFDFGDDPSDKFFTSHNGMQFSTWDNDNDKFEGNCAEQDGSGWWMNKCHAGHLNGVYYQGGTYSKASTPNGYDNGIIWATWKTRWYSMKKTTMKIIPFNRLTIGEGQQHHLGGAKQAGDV
Procedure: Weigh TNHH, dilute to 1.0 mg/ml with phosphate buffer solution, and is ready for use; Weight fibrin precisely, dissolve and dilute to 0.1 mg/ml with phosphate buffer solution, and is ready for use; Weigh thrombin, dissolve and dilute to 100 units/ml with phosphate buffer solution, which is ready for use.
Following the below procedures, test materials were reacted at 37° C. for 1 h, and then analyzed under the following chromatographic conditions.
(1) pipette test material solutions (20 μl for each), loading for analysis, and recording each retention time.
(2) pipette fibrin and thrombin solutions (0.5 ml for each), mixing and reacting at 37° C. for 1 h, and loading 20 μl sample for analysis.
(3) pipette TNHH and fibrin solutions (0.5 ml for each), mixing and reacting at 37° C. for 1 h, and loading 20 μl sample for analysis.
(4) pipette TNHH and thrombin solutions (0.5 ml for each), mixing and reacting at 37° C. for 1 h, and loading 20 μl sample for analysis.
(5) pipette TNHH and mixture of fibrin and thrombin solutions (0.5 ml for each), mixing and reacting at 37° C. for 1 h, and loading 20 μl sample for analysis.
Flow rate 0.5 ml/min; detection wavelength: 214 nm, Column temperature: room temperature; chromatogram recording time: 25 min.

[2] = test system: cerebral ischemia in rats subjected to middle cerebral artery occlusion; type: in vivo, Wistar rats; conditions: for behavioral score: full score 11

B1: TNHH: recombinant chimeric protein of neutrophil inhibitory factor and hirugen, Met-NIF-GGGGG-FPRPGSGG-Hirugen (SEQ ID NO: 3), expressed in E. coli (protein)
chain: MNEHNLRCPQNGTEMPGFNDSIRLQFLAMHNGYRSKLALGHISITEESESDDDDDFGFLPDFAPRASKMRYLEYDCEAEKSAYMSARNCSDSSSPPEGYDENKYIFENSNNISEAALKAMISWAKEAFNLNKTKEGEGVLYRSNHDISNFANLAWDAREKFGCAVVNCPLGEIDDETNHDGETYATTIHVVCHYPKINKTEGQPIYKVGTPCDDCSEYTKKADNTTSADPVCIPDDGVCFIGSKADYDSKEFYRFRELGGGGGFPRPGSGGNGDFEEIPEEYL
modifications: N-terminal Met
aggregation ratio, Before administration ([1]; TNHH 1.0 mg/kg group): 57.19 ± 4.42% | aggregation ratio, 15 min after administration ([1]; TNHH 1.0 mg/kg i.v.): 36.27 ± 12.13% | aggregation ratio, difference ([1]; TNHH 1.0 mg/kg i.v.): 20.82 ± 7.98 % | aggregation ratio, Before administration ([1]; TNHH 2.0 mg/kg group): 59.62 ± 7.22% | aggregation ratio, 15 min after administration ([1]; TNHH 2.0 mg/kg i.v.): 19.33 ± 10.25% | aggregation ratio, difference ([1]; TNHH 2.0 mg/kg i.v.): 30.30 ± 9.92 % | aggregation ratio, Before administration ([1]; TNHH 4.0 mg/kg group): 59.23 ± 6.30% | aggregation ratio, 15 min after administration ([1]; TNHH 4.0 mg/kg i.v.): 9.22 ± 4.51% | aggregation ratio, difference ([1]; TNHH 4.0 mg/kg i.v.): 50.92 ± 4.33 % | binding with fibrin (Human fibrin): could bind with fibrin and thrombin | behavioral score ([2]; 2 mg/kg bid caudal vein, 4 h): 6.5 ± 1.0 | behavioral score ([2]; 2 mg/kg bid caudal vein, 8 h): 6.2 ± 1.2 | behavioral score ([2]; 2 mg/kg bid caudal vein, 24 h): 5.8 ± 1.2 | behavioral score ([2]; 2 mg/kg bid caudal vein, 48 h): 5.3 ± 0.5 | behavioral score ([2]; 2 mg/kg bid caudal vein, 72 h): 5.0 ± 0.6 | pathological section of brain (cerebral cortex nerve cells) ([2]; 2 mg/kg bid caudal vein, HE, compared with model group): least pathological changes; also recorded: more regular structural arrangements, a portion of deeply stained nucleus, and some cytoplasmic shrinkage or disappearance | Cerebral infarction volume (%) ([2]; 72 h): 23.2 ± 5.4 %
